Results from article PMC10302205, “Saccharomyces cerevisiae Δ9-desaturase Ole1 forms a supercomplex with Slc1 and Dga1” (The Journal of Biological Chemistry, 2023).

Key:
Ole1-Myc-Cub-LexA-VP16 = target: T1, Ole1-Myc-Cub-LexA-VP16 (S. cerevisiae, UniProt P21147 1-510); assay: two-hybrid; integrated membrane yeast two-hybrid (split ubiquitin): Ole1-Myc-Cub-LexA-VP16 from the endogenous locus of strain YBG1 as bait, NubG fusions from plasmids as prey; growth on SD-W-H-A with 6 mM 3-aminotriazole and β-galactosidase activity of cell extracts
T1 construct: Ole1, Δ9 acyl-CoA (stearoyl-CoA) desaturase of S. cerevisiae; the endogenous chromosomal OLE1 gene, with the tag at its carboxyl end; The tag was put behind the chromosomal gene, so the whole protein is likely; also called Δ9 acyl-CoA desaturase Ole1; Ole1-Cub-LexA-VP16; not shown: Myc, C-terminal, kept; Cub-LexA-VP16, C-terminal, kept
T1 sequence (looked up): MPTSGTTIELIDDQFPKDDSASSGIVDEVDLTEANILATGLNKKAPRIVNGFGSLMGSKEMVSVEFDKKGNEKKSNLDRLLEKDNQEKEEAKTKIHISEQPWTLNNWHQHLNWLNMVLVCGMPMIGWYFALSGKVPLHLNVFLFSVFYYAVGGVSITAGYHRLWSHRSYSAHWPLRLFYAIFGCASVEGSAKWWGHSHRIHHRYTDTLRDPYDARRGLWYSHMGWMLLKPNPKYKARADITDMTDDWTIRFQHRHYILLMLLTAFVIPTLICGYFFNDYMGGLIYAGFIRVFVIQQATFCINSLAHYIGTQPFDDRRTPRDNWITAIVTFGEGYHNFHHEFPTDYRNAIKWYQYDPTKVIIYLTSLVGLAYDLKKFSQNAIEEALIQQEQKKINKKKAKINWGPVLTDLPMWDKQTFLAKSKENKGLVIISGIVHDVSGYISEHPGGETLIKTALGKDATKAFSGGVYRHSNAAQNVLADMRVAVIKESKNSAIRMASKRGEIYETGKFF

Slc1-Cub-LexA-VP16 = target: T2, Slc1-Cub-LexA-VP16 (S. cerevisiae, UniProt P33333 1-303); assay: two-hybrid; membrane yeast two-hybrid (split ubiquitin): plasmid-borne Slc1-Cub-LexA-VP16 as bait and NubG fusions as prey in NMY51; growth on SD-W-L-H-A with 6 mM 3-aminotriazole and β-galactosidase activity of cell extracts; settings: partners not purified
T2 construct: Slc1, lysophosphatidic acid acyltransferase of S. cerevisiae; The end of the tag is read from the order of the printed label; also called Slc1 bait (strain YBG2); pTMBV4-SLC1; not shown: Cub-LexA-VP16, C-terminal, kept
T2 sequence (looked up): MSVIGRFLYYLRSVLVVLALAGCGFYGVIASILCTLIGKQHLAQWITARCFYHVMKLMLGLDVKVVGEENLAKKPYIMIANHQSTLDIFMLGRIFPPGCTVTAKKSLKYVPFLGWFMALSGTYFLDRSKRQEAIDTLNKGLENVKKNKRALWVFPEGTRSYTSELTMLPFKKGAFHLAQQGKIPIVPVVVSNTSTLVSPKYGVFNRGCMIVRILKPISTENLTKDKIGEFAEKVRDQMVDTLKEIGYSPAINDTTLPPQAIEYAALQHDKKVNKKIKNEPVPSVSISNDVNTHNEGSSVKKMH

B1: NubG-Slc1 (enzyme, S. cerevisiae, UniProt P33333 1-303, looked up)
chain: MSVIGRFLYYLRSVLVVLALAGCGFYGVIASILCTLIGKQHLAQWITARCFYHVMKLMLGLDVKVVGEENLAKKPYIMIANHQSTLDIFMLGRIFPPGCTVTAKKSLKYVPFLGWFMALSGTYFLDRSKRQEAIDTLNKGLENVKKNKRALWVFPEGTRSYTSELTMLPFKKGAFHLAQQGKIPIVPVVVSNTSTLVSPKYGVFNRGCMIVRILKPISTENLTKDKIGEFAEKVRDQMVDTLKEIGYSPAINDTTLPPQAIEYAALQHDKKVNKKIKNEPVPSVSISNDVNTHNEGSSVKKMH
notes: Slc1, lysophosphatidic acid acyltransferase of S. cerevisiae; 'the SLC1 open reading frame was amplified from S. cerevisiae genomic DNA'; also called pADSL-NubG-SLC1; source: yeast two-hybrid fusion (split ubiquitin prey), from plasmid pADSL-NubG-SLC1 in S. cerevisiae; not shown: NubG, N-terminal, kept
β-galactosidase activity, fold over the negative control Alg5-NubG (Ole1-Myc-Cub-LexA-VP16; partners not purified): 9 fold over the negative control

B2: NubG-Sct1 (enzyme, S. cerevisiae, UniProt P32784 1-759, looked up)
chain: MPAPKLTEKFASSKSTQKTTNYSSIEAKSVKTSADQAYIYQEPSATKKILYSIATWLLYNIFHCFFREIRGRGSFKVPQQGPVIFVAAPHANQFVDPVILMGEVKKSVNRRVSFLIAESSLKQPPIGFLASFFMAIGVVRPQDNLKPAEGTIRVDPTDYKRVIGHDTHFLTDCMPKGLIGLPKSMGFGEIQSIESDTSLTLRKEFKMAKPEIKTALLTGTTYKYAAKVDQSCVYHRVFEHLAHNNCIGIFPEGGSHDRTNLLPLKAGVAIMALGCMDKHPDVNVKIVPCGMNYFHPHKFRSRAVVEFGDPIEIPKELVAKYHNPETNRDAVKELLDTISKGLQSVTVTCSDYETLMVVQTIRRLYMTQFSTKLPLPLIVEMNRRMVKGYEFYRNDPKIADLTKDIMAYNAALRHYNLPDHLVEEAKVNFAKNLGLVFFRSIGLCILFSLAMPGIIMFSPVFILAKRISQEKARTALSKSTVKIKANDVIATWKILIGMGFAPLLYIFWSVLITYYLRHKPWNKIYVFSGSYISCVIVTYSALIVGDIGMDGFKSLRPLVLSLTSPKGLQKLQKDRRNLAERIIEVVNNFGSELFPDFDSAALREEFDVIDEEEEDRKTSELNRRKMLRKQKIKRQEKDSSSPIISQRDNHDAYEHHNQDSDGVSLVNSDNSLSNIPLFSSTFHRKSESSLASTSVAPSSSSEFEVENEILEEKNGLASKIAQAVLNKRIGENTAREEEEEEEEEEEEEEEEEEGKEGDA
notes: Sct1, glycerophosphate acyltransferase of S. cerevisiae; also called pNubG-SCT1; pADSL-NubG-SCT1; source: yeast two-hybrid fusion (split ubiquitin prey), from plasmid pADSL-NubG-SCT1 in S. cerevisiae; not shown: NubG, N-terminal, kept
β-galactosidase activity, fold of the negative control Alg5-NubG (fold of the negative control) (Ole1-Myc-Cub-LexA-VP16): 2
β-galactosidase activity, fold of the negative control (Slc1-Cub-LexA-VP16): 3 fold of the negative control

B3: NubG-Gpt2 (enzyme, S. cerevisiae, UniProt P36148 1-743, looked up)
chain: MSAPAADHNAAKPIPHVPQASRRYKNSYNGFVYNIHTWLYDVSVFLFNILFTIFFREIKVRGAYNVPEVGVPTILVCAPHANQFIDPALVMSQTRLLKTSAGKSRSRMPCFVTAESSFKKRFISFFGHAMGGIPVPRIQDNLKPVDENLEIYAPDLKNHPEIIKGRSKNPQTTPVNFTKRFSAKSLLGLPDYLSNAQIKEIPDDETIILSSPFRTSKSKVVELLTNGTNFKYAEKIDNTETFQSVFDHLHTKGCVGIFPEGGSHDRPSLLPIKAGVAIMALGAVAADPTMKVAVVPCGLHYFHRNKFRSRAVLEYGEPIVVDGKYGEMYKDSPRETVSKLLKKITNSLFSVTENAPDYDTLMVIQAARRLYQPVKVRLPLPAIVEINRRLLFGYSKFKDDPRIIHLKKLVYDYNRKLDSVGLKDHQVMQLKTTKLEALRCFVTLIVRLIKFSVFAILSLPGSILFTPIFIICRVYSEKKAKEGLKKSLVKIKGTDLLATWKLIVALILAPILYVTYSILLIILARKQHYCRIWVPSNNAFIQFVYFYALLVFTTYSSLKTGEIGVDLFKSLRPLFVSIVYPGKKIEEIQTTRKNLSLELTAVCNDLGPLVFPDYDKLATEIFSKRDGYDVSSDAESSISRMSVQSRSRSSSIHSIGSLASNALSRVNSRGSLTDIPIFSDAKQGQWKSEGETSEDEDEFDEKNPAIVQTARSSDLNKENSRNTNISSKIASLVRQKREHEKKE
notes: Gpt2, glycerophosphate acyltransferase of S. cerevisiae; also called pNubG-GPT2; pADSL-NubG-GPT2; source: yeast two-hybrid fusion (split ubiquitin prey), from plasmid pADSL-NubG-GPT2 in S. cerevisiae; not shown: NubG, N-terminal, kept
β-galactosidase activity, fold over Alg5-NubG (Slc1-Cub-LexA-VP16): ~10 fold over Alg5-NubG

B4: NubG-Dga1 (full-length NubG-Dga1 fusion) (enzyme, S. cerevisiae, UniProt Q08650 1-418, looked up)
chain: MSGTFNDIRRRKKEEGSPTAGITERHENKSLSSIDKREQTLKPQLESCCPLATPFERRLQTLAVAWHTSSFVLFSIFTLFAISTPALWVLAIPYMIYFFFDRSPATGEVVNRYSLRFRSLPIWKWYCDYFPISLIKTVNLKPTFTLSKNKRVNEKNYKIRLWPTKYSINLKSNSTIDYRNQECTGPTYLFGYHPHGIGALGAFGAFATEGCNYSKIFPGIPISLMTLVTQFHIPLYRDYLLALGISSVSRKNALRTLSKNQSICIVVGGARESLLSSTNGTQLILNKRKGFIKLAIQTGNINLVPVFAFGEVDCYNVLSTKKDSVLGKMQLWFKENFGFTIPIFYARGLFNYDFGLLPFRAPINVVVGRPIYVEKKITNPPDDVVNHFHDLYIAELKRLYYENREKYGVPDAELKIVG
notes: Dga1, diacylglycerol acyltransferase of S. cerevisiae; DGA1 amplified from W303 genomic DNA; 418 residues by the printed ranges; also called pNubG-DGA1; pADSL-NubG-DGA1; source: yeast two-hybrid fusion (split ubiquitin prey), from plasmid pADSL-NubG-DGA1 in S. cerevisiae; not shown: NubG, N-terminal, kept
β-galactosidase activity, fold over the negative control Alg5-NubG (fold over the negative control) (Ole1-Myc-Cub-LexA-VP16): 11
β-galactosidase activity, fold over Alg5-NubG (Slc1-Cub-LexA-VP16): 17 fold over Alg5-NubG

B5: NubG-Dga1KR (Dga1 K397A, R398A) (enzyme, S. cerevisiae, UniProt Q08650 1-418, looked up)
chain: MSGTFNDIRRRKKEEGSPTAGITERHENKSLSSIDKREQTLKPQLESCCPLATPFERRLQTLAVAWHTSSFVLFSIFTLFAISTPALWVLAIPYMIYFFFDRSPATGEVVNRYSLRFRSLPIWKWYCDYFPISLIKTVNLKPTFTLSKNKRVNEKNYKIRLWPTKYSINLKSNSTIDYRNQECTGPTYLFGYHPHGIGALGAFGAFATEGCNYSKIFPGIPISLMTLVTQFHIPLYRDYLLALGISSVSRKNALRTLSKNQSICIVVGGARESLLSSTNGTQLILNKRKGFIKLAIQTGNINLVPVFAFGEVDCYNVLSTKKDSVLGKMQLWFKENFGFTIPIFYARGLFNYDFGLLPFRAPINVVVGRPIYVEKKITNPPDDVVNHFHDLYIAELAALYYENREKYGVPDAELKIVG
notes: Dga1 of S. cerevisiae, charged-to-alanine mutant made in pADSL-NubG-DGA1 (the full-length fusion); source: yeast two-hybrid fusion (split ubiquitin prey), synthetic DNA fragment assembled into pADSL-NubG-DGA1, in S. cerevisiae; not shown: NubG, N-terminal, kept
β-galactosidase activity, % of wildtype Dga1 (Ole1-Myc-Cub-LexA-VP16; partners not purified): ~60 % of wildtype Dga1

B6: NubG-Dga1DEK (Dga1 D411A, E413A, K415A) (enzyme, S. cerevisiae, UniProt Q08650 1-418, looked up)
chain: MSGTFNDIRRRKKEEGSPTAGITERHENKSLSSIDKREQTLKPQLESCCPLATPFERRLQTLAVAWHTSSFVLFSIFTLFAISTPALWVLAIPYMIYFFFDRSPATGEVVNRYSLRFRSLPIWKWYCDYFPISLIKTVNLKPTFTLSKNKRVNEKNYKIRLWPTKYSINLKSNSTIDYRNQECTGPTYLFGYHPHGIGALGAFGAFATEGCNYSKIFPGIPISLMTLVTQFHIPLYRDYLLALGISSVSRKNALRTLSKNQSICIVVGGARESLLSSTNGTQLILNKRKGFIKLAIQTGNINLVPVFAFGEVDCYNVLSTKKDSVLGKMQLWFKENFGFTIPIFYARGLFNYDFGLLPFRAPINVVVGRPIYVEKKITNPPDDVVNHFHDLYIAELKRLYYENREKYGVPAAALAIVG
notes: as for B5
β-galactosidase activity, % of wildtype Dga1 (Ole1-Myc-Cub-LexA-VP16; partners not purified): ~60 % of wildtype Dga1
